Measurements: patent US20260201020A1, “METHODS FOR EXPRESSION OF FUSION-FREE BOVINE ULTRALONG CDR3 SCAFFOLD” (priority 2022, published 2026)
Read-outs that look alike come from different tables or passages of the source.

Key:
[1] = target: SARS-CoV-2 Spike RBD (SARS-CoV-2), P0DTC2
[2] = target: SARS-CoV-2 Spike RBD (SARS-CoV-2), P0DTC2; remark: listed apart in the source
[3] = target: SARS-CoV-2 Spike RBD (SARS-CoV-2), P0DTC2; remark: listed apart in the source
[4] = target: SARS-CoV-2 Spike RBD (SARS-CoV-2), P0DTC2; remark: listed apart in the source
[5] = target: SARS-CoV-2 Spike RBD (SARS-CoV-2), P0DTC2; remark: listed apart in the source
[6] = target: SARS-CoV-2 Spike RBD (SARS-CoV-2), P0DTC2; remark: listed apart in the source
[7] = target: SARS-CoV-2 Spike RBD (SARS-CoV-2), P0DTC2; remark: listed apart in the source

Adjusted Binding Rate [1]: 2.12 nm/s
Adjusted Binding Rate [2]: 7.41 nm/s
Adjusted Binding Rate [3]: 32.8 nm/s
Adjusted Binding Rate [4]: 7.24 nm/s
Adjusted Binding Rate [5]: 31.9 nm/s
Adjusted Binding Rate [6]: 5.39 nm/s
Adjusted Binding Rate [7]: 7.1 nm/s
B1: R2G3-His (peptide)
chain: GGGGAMGSEGDKTCPDGYEHTCGCIGGCGCKRSACIGALCCQASLGGWLSDGETYTGGGGSGGGGSHHHHHH
modifications: not checked
